B1: PHTF1 (parent)
chain: RVKLISNKGTETDNDPSCVHPIIK

Variants of: B1
Test: protein stability index of a GFP-peptide fusion (GPS, HEK-293T) (PSI 1-6); higher = more stable
Conditions: c terminus: a fixed tail appended
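Also: lentivirally expressed fusions sorted by FACS into six bins by GFP to DsRed ratio, PSI derived from sequencing read proportions per bin multiplied by bin number.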

Protein stability index, by site and new letter:
V19: G 3.89 | Y 3.86 | Q 4.21 | A 4.34 | H 3.87 | P 4.64 | D 4.74 | M 3.88 | S 4.47 | I 3.84 | C 3.93 | R 4.21 | N 4.38 | T 4.36 | L 3.68 | E 4.32 | F 3.31 | W 3.19 | K 4.28
N14: R 3.71 | P 4.3 | C 3.72 | L 3.48 | Q 4.29 | I 3.06 | V 4.26 | A 4.25 | T 4.16 | G 3.83 | M 3.6 | W 2.65 | E 4.53 | K 3.65 | H 3.82 | D 4.04 | Y 3.73 | S 4.56 | F 3.06
P16: A 3.98 | S 4.4 | H 3.88 | Y 3.13 | V 3.97 | L 3.38 | Q 4.03 | D 4.13 | E 4.18 | F 3.48 | K 4.06 | G 4.55 | W 2.37 | I 3.67 | M 3.96 | R 3.96 | C 3.82 | N 3.68 | T 3.94
P21: V 3.46 | H 4.03 | F 2.73 | T 3.87 | K 3.84 | G 4.08 | C 2.75 | Q 3.82 | S 3.89 | I 2.1 | L 2.3 | M 3.06 | D 3.95 | N 3.61 | A 3.72 | E 4.03 | W 3.13 | R 4
C18: G 4.3 | K 4.32 | P 4.03 | I 4.23 | R 4.08 | N 4.5 | Y 3.77 | A 4.01 | H 4.49 | F 3.79 | M 4.19 | S 4.42 | W 2.77 | D 4.46 | T 4.42 | E 4.85 | Q 4.28 | V 4.58 | L 4.09
D13: T 3.76 | W 2.48 | R 3.76 | N 3.68 | L 3.4 | Y 2.74 | P 3.26 | H 3.51 | G 3.89 | S 3.85 | K 3.74 | F 2.96 | M 3.48 | I 3.24 | Q 3.9 | V 3.5
S17: M 3.59 | L 3.93 | H 4.06 | C 3.53 | A 4.42 | R 3.99 | V 4.16 | F 3.12 | Q 4.18 | T 4.27 | K 4.22 | P 4.41 | N 4.01 | Y 3.36 | D 4.08 | E 4.71 | W 2.96 | I 3.29 | G 4.21
H20: M 4.22 | G 4.43 | F 3.42 | Q 4.61 | L 3.95 | Y 3.91 | P 4.02 | A 4.3 | K 4.38 | I 3.6 | E 4.76 | T 4.49 | W 3.32 | S 4.11 | C 3.94 | R 4.26 | D 4.46 | N 4.15 | V 3.86
D15: T 3.56 | W 2.04 | H 3.64 | P 4.1 | F 2.87 | M 3.62 | R 3.45 | Q 3.82 | V 3.68 | K 3.79 | S 3.9 | C 3.09 | L 3.27 | Y 3 | E 3.94 | G 3.67 | I 3.29 | A 3.8 | N 4.06

— the supplement of paper PMC10567573
